Where two headings read alike, the source gives them in different places.
Experiments:
[1] = target: T1, AtLFYΔ40 (LEAFY) (Arabidopsis thaliana, UniProt Q00958 41-420, del1-40); assay: EMSA
T1 sequence: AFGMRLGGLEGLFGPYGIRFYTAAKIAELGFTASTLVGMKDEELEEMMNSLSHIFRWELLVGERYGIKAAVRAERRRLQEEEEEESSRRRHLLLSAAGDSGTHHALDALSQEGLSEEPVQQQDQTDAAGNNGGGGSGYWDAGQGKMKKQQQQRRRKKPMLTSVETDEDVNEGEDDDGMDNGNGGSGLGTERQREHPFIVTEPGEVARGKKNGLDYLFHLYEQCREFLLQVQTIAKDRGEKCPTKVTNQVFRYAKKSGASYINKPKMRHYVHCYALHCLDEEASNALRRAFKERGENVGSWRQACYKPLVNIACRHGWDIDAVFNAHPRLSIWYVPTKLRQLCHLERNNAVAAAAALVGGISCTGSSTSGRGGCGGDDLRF

[2] = target: T1, AtLFYΔ40 (LEAFY); assay: EMSA; remark: listed apart in the source

B1: 601 free DNA (dsDNA)
DNA 1: ATCGATGTATATATCTGACACGTGCCTGGAGACTAGGGAGTAATCCCCTTGGCGGTTAAAACGCGGGGGACAGCGCGTACGTGCGTTTAAGCGGTGCTAGAGCTGTCTACGACCAATTGAGCGGCCTCGGCACCGGGATTCTGAT
DNA 2: ATCAGAATCCCGGTGCCGAGGCCGCTCAATTGGTCGTAGACAGCTCTAGCACCGCTTAAACGCACGTACGCGCTGTCCCCCGCGTTTTAACCGCCAAGGGGATTACTCCCTAGTCTCCAGGCACGTGTCAGATATATACATCGAT
[1]
  binding result: binds

B2: C2 free DNA (dsDNA)
DNA 1: ATCGATGTATATATCTGACACGTGCCTGGAGACTAGGGAGTAATCCCCTTGGCGGTTAAAACGCATTGACCAGCGGGTAATTGCGTTTAAGCGGTGCTAGAGCTGTCTACGACCAATTGAGCGGCCTCGGCACCGGGATTCTGAT
DNA 2: ATCAGAATCCCGGTGCCGAGGCCGCTCAATTGGTCGTAGACAGCTCTAGCACCGCTTAAACGCAATTACCCGCTGGTCAATGCGTTTTAACCGCCAAGGGGATTACTCCCTAGTCTCCAGGCACGTGTCAGATATATACATCGAT
[2]
  binding result: binds

Source: article doi:10.1101/2021.01.07.425699
